target: T1, recombinant human integrin α5β1 (R&D) (human, UniProt P08648 42-995; P05556 21-728); assay: phage competition ELISA IC50 of the Fab-phage against human integrin α5β1, relative to parental h7H5.v1; down arrow = loss, up arrow = improvement of binding affinity
T1 construct: Bought recombinant heterodimer (R&D); It was used coated on plates and in solution in the phage ELISA, and as analyte or immobilized in BIAcore; also called alpha5beta1; a5b1
Experimental: Substitutions with other resides at various positions was achieved by Kunkel mutagenesis using a separate oligonucleotide for each position. […] The IC50 values for binding affinity were determined by phage competition ELISA in FIG. 6. Two variants, h7H5.v2 and h7H5.v3 as indicated were selected to include glycine substitution at position 65 of CDR-H2, cloned into hIgG1 vector, and evaluated binding affinities using BIAcore instrument.
(§1) MAXISORP™ microtiter plates were coated with recombinant human integrin α5β1 (R&D) at 5 μg/ml in PBS overnight and then blocked with PBST buffer (0.5% BSA and 0.05% Tween 20 in PBS) for an hour at room temperature. Phage from culture supernatants were incubated with serially diluted human integrin α5β1 in PBST buffer in a tissue-culture microtiter plate for an hour, after which 80 μl of the mixture was transferred to the target-coated wells for 15 minutes to capture unbound phage. The plate was washed with PBT buffer (0.05% Tween 20 in PBS), and HRP-conjugated anti-M13 (Amersham Pharmacia Biotech) was added (1:5000 in PBST buffer) for 40 minutes. The plate was washed with PBT buffer and developed by adding tetramethylbenzidine substrate (Kirkegaard and Perry Laboratories, Gaithersburg, Md.). The absorbance at 450 nm was plotted as a function of target concentration in solution to determine phage IC₅₀.

T1 sequence (P08648 42-995 limits assumed, chain 1 of 2): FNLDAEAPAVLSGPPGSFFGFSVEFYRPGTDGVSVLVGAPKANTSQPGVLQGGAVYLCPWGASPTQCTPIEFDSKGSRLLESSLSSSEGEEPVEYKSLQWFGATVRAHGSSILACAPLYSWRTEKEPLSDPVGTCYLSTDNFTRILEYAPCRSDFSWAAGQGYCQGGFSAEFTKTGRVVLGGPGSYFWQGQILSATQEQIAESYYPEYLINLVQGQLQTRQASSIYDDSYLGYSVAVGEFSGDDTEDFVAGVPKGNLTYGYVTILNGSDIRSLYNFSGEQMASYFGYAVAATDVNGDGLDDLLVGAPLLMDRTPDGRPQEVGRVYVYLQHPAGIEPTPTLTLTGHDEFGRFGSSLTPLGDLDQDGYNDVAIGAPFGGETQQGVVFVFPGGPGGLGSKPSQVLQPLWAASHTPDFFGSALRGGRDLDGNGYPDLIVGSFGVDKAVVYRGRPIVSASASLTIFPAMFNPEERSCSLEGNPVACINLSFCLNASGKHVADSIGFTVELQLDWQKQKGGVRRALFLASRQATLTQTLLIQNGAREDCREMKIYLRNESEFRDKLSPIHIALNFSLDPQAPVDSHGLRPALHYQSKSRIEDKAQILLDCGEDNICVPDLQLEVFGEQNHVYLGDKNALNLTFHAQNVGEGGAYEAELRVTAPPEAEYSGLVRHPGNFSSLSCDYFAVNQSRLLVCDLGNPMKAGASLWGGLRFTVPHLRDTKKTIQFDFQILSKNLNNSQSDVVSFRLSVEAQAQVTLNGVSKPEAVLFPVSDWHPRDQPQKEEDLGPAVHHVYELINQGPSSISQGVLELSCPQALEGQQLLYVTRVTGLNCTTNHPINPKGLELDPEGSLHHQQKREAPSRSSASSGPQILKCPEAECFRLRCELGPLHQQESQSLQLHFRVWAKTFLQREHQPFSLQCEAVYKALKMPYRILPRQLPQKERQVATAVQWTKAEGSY
T1 sequence (P05556 21-728 limits assumed, chain 2 of 2): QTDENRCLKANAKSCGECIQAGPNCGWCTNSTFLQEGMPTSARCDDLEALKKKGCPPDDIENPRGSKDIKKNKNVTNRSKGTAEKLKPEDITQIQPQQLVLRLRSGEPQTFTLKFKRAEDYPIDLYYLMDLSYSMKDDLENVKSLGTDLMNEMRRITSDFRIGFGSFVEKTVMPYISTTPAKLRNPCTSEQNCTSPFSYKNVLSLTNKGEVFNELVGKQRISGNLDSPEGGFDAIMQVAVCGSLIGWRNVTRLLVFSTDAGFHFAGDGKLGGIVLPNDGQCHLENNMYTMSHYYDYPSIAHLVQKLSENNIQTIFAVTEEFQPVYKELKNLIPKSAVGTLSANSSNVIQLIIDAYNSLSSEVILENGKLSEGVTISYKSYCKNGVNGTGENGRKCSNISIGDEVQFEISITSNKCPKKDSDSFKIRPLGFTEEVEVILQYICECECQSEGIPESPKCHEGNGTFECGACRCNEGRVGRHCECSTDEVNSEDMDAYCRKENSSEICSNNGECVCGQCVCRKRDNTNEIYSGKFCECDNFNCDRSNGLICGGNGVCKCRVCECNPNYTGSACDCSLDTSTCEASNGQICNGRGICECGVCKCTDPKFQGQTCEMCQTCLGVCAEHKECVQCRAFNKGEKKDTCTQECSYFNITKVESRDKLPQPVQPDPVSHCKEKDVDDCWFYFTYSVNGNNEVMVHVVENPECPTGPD

Binder | Relative Fold to h7H5.v1 [fold]
CDR-H2:N54S (Fab, part only; not given: VH end, constant domains, phage fusion, V domains shown, not shown: another chain or arm of the molecule; a dimerising Fc or GST; large carriers) VL: DIQMTQSPSSLSASVGDRVTITCKASQNVGSDVAWYQQKPGKAPKTLIYSTSYRYSGVPSRFSGSGSGTDFTLTISSLQPEDFATYYCQQYNSYPFTFGQGTKVEIK VH: EVQLVESGGGLVQPGGSLRLSCAASGYTFTDYYLYWVRQAPGKGLEWIGGISPSSGGTTFNDNFENKATLSVDKSKNTAYLQMNSLRAEDTAVYYCTRDAYGDWYFDVWGQGT | 1
CDR-H2:N62A (Fab, part only; not given: VH end, constant domains, phage fusion, V domains shown, not shown: another chain or arm of the molecule; a dimerising Fc or GST; large carriers) VL: DIQMTQSPSSLSASVGDRVTITCKASQNVGSDVAWYQQKPGKAPKTLIYSTSYRYSGVPSRFSGSGSGTDFTLTISSLQPEDFATYYCQQYNSYPFTFGQGTKVEIK VH: EVQLVESGGGLVQPGGSLRLSCAASGYTFTDYYLYWVRQAPGKGLEWIGGISPSNGGTTFNDAFENKATLSVDKSKNTAYLQMNSLRAEDTAVYYCTRDAYGDWYFDVWGQGT | 1
CDR-H2:N60A (Fab, part only; not given: VH end, constant domains, phage fusion, V domains shown, not shown: another chain or arm of the molecule; a dimerising Fc or GST; large carriers) VL: DIQMTQSPSSLSASVGDRVTITCKASQNVGSDVAWYQQKPGKAPKTLIYSTSYRYSGVPSRFSGSGSGTDFTLTISSLQPEDFATYYCQQYNSYPFTFGQGTKVEIK VH: EVQLVESGGGLVQPGGSLRLSCAASGYTFTDYYLYWVRQAPGKGLEWIGGISPSNGGTTFADNFENKATLSVDKSKNTAYLQMNSLRAEDTAVYYCTRDAYGDWYFDVWGQGT | 1.6
CDR-H2:N60S (Fab, part only; not given: VH end, constant domains, phage fusion, V domains shown, not shown: another chain or arm of the molecule; a dimerising Fc or GST; large carriers) VL: DIQMTQSPSSLSASVGDRVTITCKASQNVGSDVAWYQQKPGKAPKTLIYSTSYRYSGVPSRFSGSGSGTDFTLTISSLQPEDFATYYCQQYNSYPFTFGQGTKVEIK VH: EVQLVESGGGLVQPGGSLRLSCAASGYTFTDYYLYWVRQAPGKGLEWIGGISPSNGGTTFSDNFENKATLSVDKSKNTAYLQMNSLRAEDTAVYYCTRDAYGDWYFDVWGQGT | 2.5
CDR-L1:N28S (Fab, V domains shown, Fab-phage; also called h7H5.v1 single point mutant, light chain N28S, Fab-phage; copies: 1 + 1) VH: EVQLVESGGGLVQPGGSLRLSCAASGYTFTDYYLYWVRQAPGKGLEWIGGISPSNGGTTFNDNFENKATLSVDKSKNTAYLQMNSLRAEDTAVYYCTRDAYGDWYFDVWGQGT VL: DIQMTQSPSSLSASVGDRVTITCKASQSVGSDVAWYQQKPGKAPKTLIYSTSYRYSGVPSRFSGSGSGTDFTLTISSLQPEDFATYYCQQYNSYPFTFGQGTKVEIK | 1.3
CDR-L3:N92S (Fab, V domains shown, Fab-phage; also called h7H5.v1 single point mutant, light chain N92S, Fab-phage; copies: 1 + 1) VH: EVQLVESGGGLVQPGGSLRLSCAASGYTFTDYYLYWVRQAPGKGLEWIGGISPSNGGTTFNDNFENKATLSVDKSKNTAYLQMNSLRAEDTAVYYCTRDAYGDWYFDVWGQGT VL: DIQMTQSPSSLSASVGDRVTITCKASQNVGSDVAWYQQKPGKAPKTLIYSTSYRYSGVPSRFSGSGSGTDFTLTISSLQPEDFATYYCQQYSSYPFTFGQGTKVEIK | 1
CDR-L3:N92A (Fab, V domains shown, Fab-phage; also called h7H5.v1 single point mutant, light chain N92A, Fab-phage) VH: EVQLVESGGGLVQPGGSLRLSCAASGYTFTDYYLYWVRQAPGKGLEWIGGISPSNGGTTFNDNFENKATLSVDKSKNTAYLQMNSLRAEDTAVYYCTRDAYGDWYFDVWGQGT VL: DIQMTQSPSSLSASVGDRVTITCKASQNVGSDVAWYQQKPGKAPKTLIYSTSYRYSGVPSRFSGSGSGTDFTLTISSLQPEDFATYYCQQYASYPFTFGQGTKVEIK | 1

target: T1, recombinant human integrin α5β1 (R&D); assay: phage competition ELISA: Fab-phage incubated with serially diluted soluble human integrin α5β1, unbound phage captured on plate-coated integrin α5β1, anti-M13-HRP, A450
Experimental: Mutation at each position was generated by Kunkel mutagenesis using a separate oligonucleotide. Phage competition ELISA was utilized for evaluating all of the variants. […] Binding affinities (IC50) against human integrin α5β1 was determined.
as §1

Binder | IC50 (read off the curve) [nM] | binding result
HC:G49S (Fab, part only; not given: VH end, constant domains, phage fusion, V domains shown, not shown: another chain or arm of the molecule; large carriers) VL: DIQMTQSPSSLSASVGDRVTITCKASQSVGSDVAWYQQKPGKAPKTLIYSTSYRYSGVPSRFSGSGSGTDFTLTISSLQPEDFATYYCQQYSSYPFTFGQGTKVEIK VH: EVQLVESGGGLVQPGGSLRLSCAASGYTFTDYYLYWVRQAPGKGLEWISGISPSSGGTTFADAFEGKATLSVDKSKNTAYLQMNSLRAEDTAVYYCTRDAYGDWYFDVWGQGT | 0.07 | –
N28S(L1)+N92S(L3)+N54S/N60A/N62A/N65S(H2) (Fab, part only; not given: VH end, constant domains, phage fusion, V domains shown, not shown: another chain or arm of the molecule; large carriers) VL: DIQMTQSPSSLSASVGDRVTITCKASQSVGSDVAWYQQKPGKAPKTLIYSTSYRYSGVPSRFSGSGSGTDFTLTISSLQPEDFATYYCQQYSSYPFTFGQGTKVEIK VH: EVQLVESGGGLVQPGGSLRLSCAASGYTFTDYYLYWVRQAPGKGLEWIGGISPSSGGTTFADAFESKATLSVDKSKNTAYLQMNSLRAEDTAVYYCTRDAYGDWYFDVWGQGT | 0.04 | –
h7H5.v1 (Fab, part only; not given: VH end, constant domains, phage fusion, V domains shown, not shown: another chain or arm of the molecule; large carriers) VL: DIQMTQSPSSLSASVGDRVTITCKASQNVGSDVAWYQQKPGKAPKTLIYSTSYRYSGVPSRFSGSGSGTDFTLTISSLQPEDFATYYCQQYNSYPFTFGQGTKVEIK VH: EVQLVESGGGLVQPGGSLRLSCAASGYTFTDYYLYWVRQAPGKGLEWIGGISPSNGGTTFNDNFENKATLSVDKSKNTAYLQMNSLRAEDTAVYYCTRDAYGDWYFDVWGQGT | 0.05 | –
h7H5.v2 displayed on phage as a monovalent Fab (Fab, V domains shown, also called humanized 7H5.v2; parental clone) VH: EVQLVESGGGLVQPGGSLRLSCAASGYTFTDYYLYWVRQAPGKGLEWIGGISPSSGGTTFADAFEGKATLSVDKSKNTAYLQMNSLRAEDTAVYYCTRDAYGDWYFDVWGQGT VL: DIQMTQSPSSLSASVGDRVTITCKASQSVGSDVAWYQQKPGKAPKTLIYSTSYRYSGVPSRFSGSGSGTDFTLTISSLQPEDFATYYCQQYSSYPFTFGQGTKVEIKR | ~0.06 | –
HC:A78L (Fab, part only; not given: VH end, constant domains, phage fusion, V domains shown, not shown: another chain or arm of the molecule; large carriers) VL: DIQMTQSPSSLSASVGDRVTITCKASQSVGSDVAWYQQKPGKAPKTLIYSTSYRYSGVPSRFSGSGSGTDFTLTISSLQPEDFATYYCQQYSSYPFTFGQGTKVEIK VH: EVQLVESGGGLVQPGGSLRLSCAASGYTFTDYYLYWVRQAPGKGLEWIGGISPSSGGTTFADAFEGKATLSVDKSKNTLYLQMNSLRAEDTAVYYCTRDAYGDWYFDVWGQGT | 0.09 | –
h7H5.v2 framework modification clone, light chain T46L, displayed on phage as a monovalent Fab (Fab, name in Kabat numbering, V domains shown, Single mutation in h7H5.v2 made by Kunkel mutagenesis; monovalent Fab on phage; also called light chain position 46 (T46L)) VH: EVQLVESGGGLVQPGGSLRLSCAASGYTFTDYYLYWVRQAPGKGLEWIGGISPSSGGTTFADAFEGKATLSVDKSKNTAYLQMNSLRAEDTAVYYCTRDAYGDWYFDVWGQGT VL: DIQMTQSPSSLSASVGDRVTITCKASQSVGSDVAWYQQKPGKAPKLLIYSTSYRYSGVPSRFSGSGSGTDFTLTISSLQPEDFATYYCQQYSSYPFTFGQGTKVEIKR | – | binds
h7H5.v2 framework modification clone, heavy chain T30S, displayed on phage as a monovalent Fab (Fab, name in Kabat numbering, V domains shown, Single mutation in h7H5.v2 made by Kunkel mutagenesis; monovalent Fab on phage; also called heavy chain position 30 (T30S)) VH: EVQLVESGGGLVQPGGSLRLSCAASGYTFSDYYLYWVRQAPGKGLEWIGGISPSSGGTTFADAFEGKATLSVDKSKNTAYLQMNSLRAEDTAVYYCTRDAYGDWYFDVWGQGT VL: DIQMTQSPSSLSASVGDRVTITCKASQSVGSDVAWYQQKPGKAPKTLIYSTSYRYSGVPSRFSGSGSGTDFTLTISSLQPEDFATYYCQQYSSYPFTFGQGTKVEIKR | – | binds
h7H5.v2 framework modification clone, heavy chain I48V, displayed on phage as a monovalent Fab (Fab, name in Kabat numbering, V domains shown, Single mutation in h7H5.v2 made by Kunkel mutagenesis; monovalent Fab on phage; also called heavy chain position 48 (I48V)) VH: EVQLVESGGGLVQPGGSLRLSCAASGYTFTDYYLYWVRQAPGKGLEWVGGISPSSGGTTFADAFEGKATLSVDKSKNTAYLQMNSLRAEDTAVYYCTRDAYGDWYFDVWGQGT VL: DIQMTQSPSSLSASVGDRVTITCKASQSVGSDVAWYQQKPGKAPKTLIYSTSYRYSGVPSRFSGSGSGTDFTLTISSLQPEDFATYYCQQYSSYPFTFGQGTKVEIKR | – | binds
h7H5.v2 framework modification clone, heavy chain L69I, displayed on phage as a monovalent Fab (Fab, name in Kabat numbering, V domains shown, Single mutation in h7H5.v2 made by Kunkel mutagenesis; monovalent Fab on phage; The position is Kabat and may be shifted from the count on the entry; also called heavy chain position 69 (L69I)) VH: EVQLVESGGGLVQPGGSLRLSCAASGYTFTDYYLYWVRQAPGKGLEWIGGISPSSGGTTFADAFEGKATISVDKSKNTAYLQMNSLRAEDTAVYYCTRDAYGDWYFDVWGQGT VL: DIQMTQSPSSLSASVGDRVTITCKASQSVGSDVAWYQQKPGKAPKTLIYSTSYRYSGVPSRFSGSGSGTDFTLTISSLQPEDFATYYCQQYSSYPFTFGQGTKVEIKR | ~0.05 | –
h7H5.v2 framework modification clone, heavy chain A67F, displayed on phage as a monovalent Fab (Fab, name in Kabat numbering, V domains shown, Single mutation in h7H5.v2 made by Kunkel mutagenesis; monovalent Fab on phage; The position is Kabat and may be shifted from the count on the entry; also called heavy chain position 67 (A67F)) VH: EVQLVESGGGLVQPGGSLRLSCAASGYTFTDYYLYWVRQAPGKGLEWIGGISPSSGGTTFADAFEGKFTLSVDKSKNTAYLQMNSLRAEDTAVYYCTRDAYGDWYFDVWGQGT VL: DIQMTQSPSSLSASVGDRVTITCKASQSVGSDVAWYQQKPGKAPKTLIYSTSYRYSGVPSRFSGSGSGTDFTLTISSLQPEDFATYYCQQYSSYPFTFGQGTKVEIKR | – | binds
h7H5.v2 framework modification clone, heavy chain K66R, displayed on phage as a monovalent Fab (Fab, name in Kabat numbering, V domains shown, Single mutation in h7H5.v2 made by Kunkel mutagenesis; monovalent Fab on phage; The position is Kabat and may be shifted from the count on the entry; also called heavy chain position 66 (K66R)) VH: EVQLVESGGGLVQPGGSLRLSCAASGYTFTDYYLYWVRQAPGKGLEWIGGISPSSGGTTFADAFEGRATLSVDKSKNTAYLQMNSLRAEDTAVYYCTRDAYGDWYFDVWGQGT VL: DIQMTQSPSSLSASVGDRVTITCKASQSVGSDVAWYQQKPGKAPKTLIYSTSYRYSGVPSRFSGSGSGTDFTLTISSLQPEDFATYYCQQYSSYPFTFGQGTKVEIKR | – | binds
